Laboratory results taken from the nanobody polyreactivity screen of Harvey et al. (2022).

assay: yeast display, Sf9 membrane polyspecificity reagent, FACS + sequencing; frameworks hold sequencing errors
How it was run: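 Synthetic nanobody libraries on Saccharomyces cerevisiae BJ5465 were galactose-induced for 36–48 hours, stained 1 hour at 4 °C with 10% biotinylated, detergent-solubilized Sf9 membrane reagent and enriched on streptavidin microbeads. FACS then separated cells into low and high (top ~1%) gates by anti-HA (expression) and streptavidin (reagent binding) fluorescence. Genes were colony-PCR amplified, MiSeq 2 × 250 sequenced and CDR-length filtered. A clone's polyreactivity label is that of its gate of origin.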

Sequence | polyreactivity (PSR sort gate)
QGQLVESGGGLVQAGGSLRLSCAASGSTFNSYAMGWYRQAPGKERELVAAISRGGASTYYADSVKGSFTISRDNAKNTVYLQMNSLKPEDTAVYYCATVYYHRFDYWGQGTQVTVSS | high polyreactivity
QGQLVESGGGLVQAGGSLRLSCAASGSTFTRYGMGWYRQAPGKERELVAAITTSGSSTYYADSVKGRFTISRDNAKNTVYLQMNSLKPEDTAVYYCAADWSSWGFDYWGQGTQVTVSS | low polyreactivity
QGQLVESGGGLVQAGGSLRLSCAASGSTFYLNAMGWYRQAPGKERELVATITRRGGRTYYADSVKGRFTISRDNAKNTVYLKMNSLKPEDTAVYYCNKGGISPGDALYGYWGQGTQVTVSS | low polyreactivity
QGQLVESGGGLVQAGGSLRLSCAASGSTFYTNAMGWYRQAPGKERELVAAISGSGGSTYYADSVKGRFTISRDNAKNTVYVQMNSRKPEDTAVYYCAARSRYYYTRFDYWGQGTQVTVSS | low polyreactivity
QGQLVESGGGLVQAGGSLRLSCAASGSTYPNNTMGWYREAPGKEWEFVAAITGDGGTTYYADSVKGRFTISRDNAKNTVYLQMNSLKPEDSAVYYCAVPYPAEGYGVDYWGQGTQVTVSS | low polyreactivity
QGQLVESGGGLVQAGGSLRLTCAASGSTFDQNVMGWYRQAPGKERELVDTINFSGDSTYYADSVKGRFTISRDNAKNTVYLQRNSLKPEDTAVYYCAVDWGEYIDTSVKRDISSYWGQGTQVTVSS | low polyreactivity
QGQLVESGGGLVQAGGSVRLSCAASRITLGSNAMGWDRQAPGKERELVAAITSGSSTYYADSVKGRFTISRDNAKNTVNLQMNSLKPEDTAVYYCAADPTSYSYEYNYWGQGTQVTVSS | low polyreactivity
QGQLVESGGGLVQAGGTLRLSCAASGSTFAVYVMGGYRQAPGTERELVAAISTSGARTYYADSVKGRFTISRDNAKNTVYLQMNSLKPEDTAVYYCAARSNALFRFDYWGQGTQVTVSS | high polyreactivity
QGQLVESGGGLVQAGVTLRLSCAASGITFPWYAMGWYRQAPGKERELVASITSGGSTNYADSVKGRFTISRDNSKNTVYLQMNSLKPEDTAVSYCARDWYSPVYWAAGYDAWGSGYDYWGQGTQVTVSS | high polyreactivity
QGQLVESWGGLVQAGGSLRLSCAASGSTLRRYAMGWYRQAPGKERELVAAISRRGGSTYYADSVKGRFSISRDFAKNTVYLEMNSLKPEDTAVYYCAAKGFSTRQFDYWGQGTQVTVSS | high polyreactivity
QIQLVESGGGLVQAGGSLRLSCAASGSIFSKYAMGWYRQAPGKERELVAAISAGGGSTYYADSVKGRFTISRDNAKNTVYLQMNSLKPEDTAVYYCAARSRFRFDYWVQGTQVTVSS | high polyreactivity
QIQLVESVGGLVQAGGSLRLSCDASGSTLKYTAMGWYRQAPRKESELVAAISTSGGNTYYADSVKGPFTISRDNAKNTVYLQMNSLKPEDTAVYYCAKVLGYYYYDYDSWGQGTQVTVSS | low polyreactivity
QLHLVESGGGLVQAGGSLRLSCAASGRSFGLNALGRSRQAHGKERELVAVISFGDGGTYYADSVKGRFTISLDNAKNTVYLQMNSLKPEDTAVYYCATDYQSTSVWGGHFVINPYDYWGQGTKVTVSS | low polyreactivity
QLHLVESWGGLVQAGGSLRLSCAASGILFQNNDMGSYRQAPGKERELVAAITGSGGSTYYADSVKGRFTISRDNATNTVYLQMNSLKPEDTAVYYCNAVWEYYGKSDYWGQGTQVTVSS | low polyreactivity
QLQHVDSGGGLVQAGGSLRLSCATSGIIFYDYDIGWSRQAPEKESELVARISRNGGRTYYADSVKGRFTISRDNAKNTVYLQMNSLNPEDTAVYYCNGVYFVTTSPGSDYWGQGTQVTVSS | high polyreactivity
QLQHVESGAVLVQAAGSLRLICAASGLIFPYNAMGWSRQAPGKERELVAAIDTRASSTYYADSVKGRFTISRDNAKNSVYLQMNSLKPEDTAVYYCATRRWGRRKGVGYWGQGTQVTVSS | high polyreactivity
QLQHVESGRGLVQAGGSLRLSCADSGRTYGGYDMGWYRQATVKERELVAAISYSGGSTYYADSVKGRFTISRDNAKNTVYLEMNSLKPEDTAVFYCAADGYDAYYWGQGTQVTVSS | low polyreactivity
QLQHVETGGGLVQAGGSLRLSCAASGSTFRSYVMGWYRQAPGKERELVAAISWITGSTYYADSVKGRFTISRDNAKNTVYLQMNSLKPEDTAVYDCAARYRTQSSLYYWGQGTQVTVSS | high polyreactivity
QLQIVESGGGLVQAGGSLRLTCAASGSTFPLYAMGWYSQAPGKEREFVAAIRWIGGSTYYADSVKGRFTISRDNAKNSVYLLMNSLKPEDTAVYYGAADYVVSAFDYWGQGTQVTVSS | low polyreactivity
QLQLQESGGGLVQAGGSLRLSCAASGPITRRSTMGWYRQAPRKVRELVTAITRGTNTNYADSVKGRFTISRDNAKNTEYLQMNSLKPEDTAVYYCAAYGVLKPSRGDAVFLRYLGQGTQVTVSS | low polyreactivity
QLQLQESGGGLVQAGGSLRLSCAASGSNSRYYDMGWYRQAAGKEREFVAGISGGAITYYEDSVKGRFTISRDNANITVYVQMNSLKPEDTAVYYCAADTGDYQYHSYWGQGTQVTVSS | low polyreactivity
QLQLVDSGGGLVQAGGSLRLSCAASGFTLDYYAMGWYRQAPGKESELVAAISWSGGRTYYADSVKGRFTISRDNAKNTVYLQMNSLKPEDTAVYYCNASPYGRKYGILADGDYWGQGTQVTVSS | high polyreactivity
QLQLVESAAGLFQAGVSHRLSCDASGSTLSQNSMGGYRQAPGKEREFVADISGSGDSTYYADSVKGRFTISRDNAKNTVYLQMNSLKAEDTAVYYCATPSPHVGLKWEYDYWGQGTQVTVSS | low polyreactivity
QLQLVESGAGLVQAGGSLRLSCAASGSTFTVYGMAWYRQAPGKERELVAAITYSGGSTYYADSVKGRFTISRDNAKHTVYLTMNSLKPEDTGVYYCAAAGSQYYRRWYDYWGQGTQVTVSS | low polyreactivity
QLQLVESGGGLVLAGGSLRLSCAASGYLFQRTAKGCYRQATGKVRELVSTISRGGARTSYAYSVKGRFTISSDNANNTVYLQMNSLKPEDTAVYYCAKSYRKAGGMWSYGYWGQGTQVTVSS | high polyreactivity
QLQLVESGGGLVQAGGSLRISCAASGSTFFLNAMGWYRQAPGKERELVAAITSGSGNTYYADSVKGRFTISRDNAKNTVYLQMNSLKPADSAVYYCNVTRFVYRPYGLDRDDYWGQGTQGTVSS | low polyreactivity
QLQLVESGGGLVQAGGSLRLSCAASASTFYRYAMCCYIQAPGKERELVAGISSSGGSTYYADSVKGRFTISRDNAKNTVYLQMNSLKPEDTAVYYCAAVGQWGYGYWGQGTQVTVSS | high polyreactivity
QLQLVESGGGLVQAGGSLRLSCAASGFIFADYAMGWYRQAPGKERELVAAISSNGGSTYYADSVKGRFTISRDNAKNTVYLQMNSLKPEDTAVYYCAVRHRYYKDYEFDYWGQGTQVTVSS | high polyreactivity
QLQLVESGGGLVQAGGSLRLSCAASGFTFGVYAMGWYRQAPGKERELVAAISTTVGSTYYADSVKGRYTISRDNAKNTVYLQMNSLKPEDTAVYYCAAEYTGYISYYIYEDWGQGTQVTVSS | low polyreactivity
QLQLVESGGGLVQAGGSLRLSCAASGFTFSGYAMGWYRQAPGKERELVAAITKRGGSTYYADSVKGRFTISRDNAKNTVYLQMNSLKPEDTAVYYCAARGYISRYDARANAVQGNYWGQGTQVTVSS | high polyreactivity
